A short description of the series: self-splicing fitness, log relative to wild type (ln ratio); higher = more splicing; Tetrahymena group I intron in knt gene, E. coli kanamycin selection, DiMSum; sequences stand for … in CUCUCU…GGAGGGAAAAGUUAUCAGGCAUGCACCUGGUAGCUAGUCUUUAAACCAAUAGAUUGCAUCGGUUUAAAAGGCAAGACCGUCAAAUUGCGGGAAAGGGGUCAACAGCCGUUCAGUACCAAGUCUCAGGGGAAACUUUGAGAUGGCCUUGCAAAGGGUAUGGUAAUAAGCUGACGGACAUGGUCCUAACCACGCAGCCAAGUCCUAAGUCAACAGAUCUUCUGUUGAUAUGGAUGCAGUUCACAGACUAAAUGUCGGUCGGGGAAGAUGUAUUCUUCUCAUAAGAUAUAGUCGGACCUCUCCUUAAUGGGAGCUAGCGGAUGAAGUGAUGCAACACUGGAGCCGCUGGGAACUAAUUUGUAUGCGAAAGUAUAUUGAUUAGUUUUGGAGUACUCGUGGUCG
The gist of the method: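 The eight P1ex-region nucleotides of an intron in the knt kanamycin-resistance gene on pET-22b(+) were all randomised and the library put into E. coli BL21(DE3). Six replicate transformations were grown overnight at 37°C or 30°C on LB agar with or without 25 μg/mL kanamycin, together with 100 μg/mL carbenicillin, 50 μM IPTG and 0.2% rhamnose. Colonies were pooled and amplicon-sequenced on an Illumina HiSeq 2500. Fitness from DiMSum is the error-weighted combination of wild-type-normalised replicate fold changes, kanamycin over none.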

± gives the uncertainty stated by the source.

Take UCGAAGCAAUAUUACGCACU: the “self-splicing fitness (ln)” value runs as follows: (30 °C) -2.62 ± 0.18; (37 °C) -0.962 ± 0.14.
On to CUGCAGCAAUAUUACGCGUA, for which the “self-splicing fitness (ln)” value runs as follows: (30 °C) -1.22 ± 0.23; (37 °C) -1.53 ± 0.22.
Taken in the same sequence, the figures for AUUUAGCAAUAUUACGAACC were -2.12 ± 0.19 and -0.169 ± 0.21.
For UACCAGCAAUAUUACGCCAG the same measures were -0.698 ± 0.08 and -1.13 ± 0.1.
In the case of ACCAAGCAAUAUUACGCGGC, the “self-splicing fitness (ln)” value runs as follows: (30 °C) -3.19 ± 0.25; (37 °C) -2.39 ± 0.21.
For UUAAAGCAAUAUUACGUCCC the same measures were -1.51 ± 0.11 and -0.906 ± 0.14.
Taken in the same sequence, the figures for UGACAGCAAUAUUACGUAUC were -2.91 ± 0.097 and -2.57 ± 0.13.
Regarding CGCAAGCAAUAUUACGUGGC, the “self-splicing fitness (ln)” value runs as follows: (30 °C) -3.9 ± 0.2; (37 °C) -1.93 ± 0.17.
For AAGCAGCAAUAUUACGUGCU the same measures were -3.6 ± 0.15 and -1.85 ± 0.11.
For ACGAAGCAAUAUUACGUAAU the same measures were -2.57 ± 0.087 and -1.23 ± 0.088.
For ACAGAGCAAUAUUACGGGCU the same measures were -3.02 ± 0.22 and -2.58 ± 0.2.
In the case of AUGUAGCAAUAUUACGUUAU, the “self-splicing fitness (ln)” value is -2.41 ± 0.22 (30 °C) and -2.12 ± 0.22 (37 °C).
Taken in the same sequence, the figures for ACGCAGCAAUAUUACGUAUA were -2.65 ± 0.14 and -2.54 ± 0.13.
For GGCCAGCAAUAUUACGAAAA the same measures were -2.32 ± 0.24 and -2.23 ± 0.46.
In the case of UGCUAGCAAUAUUACGGAAC, for the setting “30 °C”, the “self-splicing fitness (ln)” value was -1.04 ± 0.5.
Consider UCAUAGCAAUAUUACGUGUA, for which the “self-splicing fitness (ln)” value was -2.35 ± 0.13 (30 °C) and -1.84 ± 0.14 (37 °C).
Taken in the same sequence, the figures for GCUUAGCAAUAUUACGCCGU were -2.31 ± 0.21 and -0.553 ± 0.18.
Turning to GCUAAGCAAUAUUACGCACG, the “self-splicing fitness (ln)” value is -1.84 ± 0.14 (30 °C) and -0.0584 ± 0.14 (37 °C).
For AUGGAGCAAUAUUACGAUGU the same measures were -1.25 ± 0.14 and -0.184 ± 0.2.
AAGGAGCAAUAUUACGAAAA: the “self-splicing fitness (ln)” value is, setting by setting: (30 °C) -2.9 ± 0.39; (37 °C) -1.84 ± 0.35.
For UUGGAGCAAUAUUACGUCUA the same measures were -1.99 ± 0.34 and -2.49 ± 0.3.
For UCCAAGCAAUAUUACGGAGG the same measures were -4.42 ± 0.27 and -2.81 ± 0.29.
Turning to CGCGAGCAAUAUUACGGUAG, the “self-splicing fitness (ln)” value (30 °C) was -1.19 ± 0.12 and the “self-splicing fitness (ln)” value (37 °C) is -0.901 ± 0.13.
Taken in the same sequence, the figures for UAAAAGCAAUAUUACGUCAA were -1.57 ± 0.11 and -1.4 ± 0.098.
Taken in the same sequence, the figures for UUCGAGCAAUAUUACGUGAG were -1.12 ± 0.067 and -0.0842 ± 0.11.
Taken in the same sequence, the figures for AGUCAGCAAUAUUACGGCGG were -0.596 ± 0.1 and -0.561 ± 0.12.
GAUAAGCAAUAUUACGAGCA: the “self-splicing fitness (ln)” value (30 °C) is -2.12 ± 0.18 and the “self-splicing fitness (ln)” value (37 °C) was -0.853 ± 0.16.
For GUGUAGCAAUAUUACGGCCA the same measures were 0.628 ± 0.35 and -0.349 ± 0.44.
For GCGUAGCAAUAUUACGUGUA the same measures were -3.63 ± 0.21 and -2.43 ± 0.12.
Taken in the same sequence, the figures for GUGUAGCAAUAUUACGAAAU were -1.47 ± 0.1 and -1.1 ± 0.14.
With GCUAAGCAAUAUUACGCGCU, the “self-splicing fitness (ln)” value by setting is: (30 °C) -2.47 ± 0.16; (37 °C) -1.57 ± 0.23.
On to CUGUAGCAAUAUUACGACAC, for which, under “37 °C”, the “self-splicing fitness (ln)” value is -2.65 ± 0.44.
With UAACAGCAAUAUUACGUGAG, the “self-splicing fitness (ln)” value (30 °C) is -0.729 ± 0.046 and the “self-splicing fitness (ln)” value (37 °C) is -0.471 ± 0.071.
For GCGCAGCAAUAUUACGAAGG the same measures were -1.79 ± 0.087 and -0.733 ± 0.12.
Taken in the same sequence, the figures for GAUAAGCAAUAUUACGAGUG were -1.04 ± 0.074 and -0.835 ± 0.066.
In the case of ACUCAGCAAUAUUACGGCGC, the “self-splicing fitness (ln)” value is, setting by setting: (30 °C) -0.183 ± 0.068; (37 °C) 0.000506 ± 0.097.
Taken in the same sequence, the figures for ACCUAGCAAUAUUACGCUGC were -2.42 ± 0.12 and -1.06 ± 0.13.
On to AUAUAGCAAUAUUACGUAUU, for which the “self-splicing fitness (ln)” value runs as follows: (30 °C) -2.94 ± 0.22; (37 °C) -1.63 ± 0.21.
For AGAGAGCAAUAUUACGUUGU the same measures were -3.79 ± 0.21 and -3.07 ± 0.2.
UAACAGCAAUAUUACGGCCC: under “30 °C”, the “self-splicing fitness (ln)” value was -2.08 ± 0.35.
Consider CCUAAGCAAUAUUACGCGCC, for which the “self-splicing fitness (ln)” value reads like this: (30 °C) -2.47 ± 0.26; (37 °C) -1.63 ± 0.33.
For CUGUAGCAAUAUUACGAUGA the same measures were -1.86 ± 0.16 and -1.83 ± 0.16.
For UGUAAGCAAUAUUACGUUUU the same measures were -4.1 ± 0.18 and -1.14 ± 0.096.
As to ACAGAGCAAUAUUACGUAAU, the “self-splicing fitness (ln)” value by setting is: (30 °C) -3.43 ± 0.4; (37 °C) -2.5 ± 0.41.
For UAAUAGCAAUAUUACGGCCC the same measures were -2.07 ± 0.34 and -0.336 ± 0.46.
For GCUAAGCAAUAUUACGCAUU the same measures were -0.91 ± 0.065 and -0.163 ± 0.084.
Taken in the same sequence, the figures for GCAAAGCAAUAUUACGAAGA were -1.88 ± 0.18 and -2.45 ± 0.23.
As to CGUUAGCAAUAUUACGCUUA, the “self-splicing fitness (ln)” value runs as follows: (30 °C) -3.67 ± 0.28; (37 °C) -1.86 ± 0.25.
Taken in the same sequence, the figures for UGGUAGCAAUAUUACGCCGG were -1.3 ± 0.12 and -0.73 ± 0.13.
For AAAAAGCAAUAUUACGAUCG the same measures were -0.0337 ± 0.054 and 0.0375 ± 0.068.
For AAGCAGCAAUAUUACGACAG the same measures were -3.04 ± 0.13 and -1.54 ± 0.12.
Consider CAAGAGCAAUAUUACGGCGC, for which the “self-splicing fitness (ln)” value reads like this: (30 °C) -3.56 ± 0.27; (37 °C) -2.17 ± 0.26.
Taken in the same sequence, the figures for AGCGAGCAAUAUUACGCCGG were -3.03 ± 0.27 and -2.44 ± 0.5.
Taken in the same sequence, the figures for GUAAAGCAAUAUUACGAUCG were -0.724 ± 0.075 and 0.373 ± 0.11.
Turning to UCGCAGCAAUAUUACGAGUG, the “self-splicing fitness (ln)” value runs as follows: (30 °C) -1.48 ± 0.088; (37 °C) -0.719 ± 0.1.
Turning to GAUCAGCAAUAUUACGAAGA, the “self-splicing fitness (ln)” value runs as follows: (30 °C) -0.925 ± 0.11; (37 °C) -0.0626 ± 0.11.
Taken in the same sequence, the figures for CAAGAGCAAUAUUACGCGUA were -2.2 ± 0.27 and -1.95 ± 0.25.
For UGAGAGCAAUAUUACGUUAA, the “self-splicing fitness (ln)” value (37 °C) is -2.46 ± 0.3.
In the case of ACCCAGCAAUAUUACGUGUC, the “self-splicing fitness (ln)” value (30 °C) is -3.36 ± 0.099 and the “self-splicing fitness (ln)” value (37 °C) is -1.75 ± 0.099.
Taken in the same sequence, the figures for GCUAAGCAAUAUUACGUUCC were -1.14 ± 0.087 and -0.467 ± 0.14.
Taken in the same sequence, the figures for AGCGAGCAAUAUUACGGAGG were -3.59 ± 0.47 and -1.53 ± 0.33.
For AGCCAGCAAUAUUACGAGCA the same measures were -0.932 ± 0.11 and 0.49 ± 0.14.
On to ACAAAGCAAUAUUACGCAUU, for which the “self-splicing fitness (ln)” value is -3.06 ± 0.095 (30 °C) and -1.56 ± 0.082 (37 °C).
For UUACAGCAAUAUUACGUUUA the same measures were -1.3 ± 0.11 and -0.512 ± 0.12.
For GCUAAGCAAUAUUACGGUGU the same measures were -2.48 ± 0.087 and -1.6 ± 0.1.
In the case of UGUGAGCAAUAUUACGCUGA, for the setting “30 °C”, the “self-splicing fitness (ln)” value is -2.24 ± 0.46.
As for UGCCAGCAAUAUUACGCAUC, the “self-splicing fitness (ln)” value by setting is: (30 °C) -3.52 ± 0.25; (37 °C) -2.2 ± 0.2.
On to CGAAAGCAAUAUUACGGCCU, for which the “self-splicing fitness (ln)” value (30 °C) is -1.32 ± 0.068 and the “self-splicing fitness (ln)” value (37 °C) is -0.274 ± 0.082.
For UAUCAGCAAUAUUACGUACU the same measures were -1.57 ± 0.089 and -0.383 ± 0.1.
Taken in the same sequence, the figures for UCUUAGCAAUAUUACGUCUC were -3.09 ± 0.3 and -2.39 ± 0.39.
For ACUCAGCAAUAUUACGAGUC the same measures were -5.21 ± 0.29 and -2.97 ± 0.2.
With AACAAGCAAUAUUACGAACA, the “self-splicing fitness (ln)” value was -1.16 ± 0.11 (30 °C) and -0.392 ± 0.11 (37 °C).
CGCGAGCAAUAUUACGUUCA: the “self-splicing fitness (ln)” value is -2.43 ± 0.19 (30 °C) and -1.5 ± 0.17 (37 °C).
For UGCUAGCAAUAUUACGUGCA the same measures were -2.54 ± 0.32 and -1.99 ± 0.28.
UAGGAGCAAUAUUACGAUCG: the “self-splicing fitness (ln)” value (30 °C) is -1.65 ± 0.16 and the “self-splicing fitness (ln)” value (37 °C) was -0.888 ± 0.21.
For AUAGAGCAAUAUUACGAGUG the same measures were -3.25 ± 0.21 and -0.0938 ± 0.18.

For the origin of these results see the supplement of paper PMC7877785.
